Experiment: soluble on expression in E. coli; label from the status in PepcDB or PDB records
For “GMSIPANNSPVRLALIGAGRWGKNYIRTIAGLPGAALVRLASSNPDNLALVPPGCVIESDWRSVVSAPEVEAVIIATPPATHAEITLAAIASGKAVLVEKPLTLDLAEAEAVAAAAKATGVMVWVEHTQLFNPAWEALKADLTSIGPILAVRSEAGNHGPYRPGGVPMLWDWGAHDVSMVLDLMGRDPDSTSASWAARGEKDGGEAGDVTLTLAFSTVEAHIRLCNTMDKCRRLAVFGEAGTLVMDDRATDKLTLHPPQPDGNWPVGQGHALTVTDEMPLTRAVRLFAGAVRQPEPGPSPLELGLRVVRVLGACS”, the “soluble on expression in E. coli” value was “soluble”.
In the case of “GMSIVGNVENLINGVGELWNKYVKHEFILKMRDGSLPLDIFRYYLIQDGKYVEDMLRALLIASSKGPIDKVTKILNLVFSSRDKGLETHGKLYSKLDISRDVIVKTGYNLINYAYTRHLYYYANLDWNKFLVAWTPCMFGYSIVGDYVIDSPNEVYKTWASFYASTEYKKRIEAILYALDEVSITEDLLNIFINSVRFEIGFWDASLRKDPTVY”, the “soluble on expression in E. coli” value was “soluble”.
With “GMSNEHQLLVGLLKKLKDDALILPTLPEVAMRVQEVVGRPDSSLKQVAEIIGQDAAISARIIKVANSALYSRGVPAENINSAVTRIGLTQIKSIATSVAMEQLFISTNEMVWEVMDEVWRTSIDVTAAACSLLQIYNKKHPGSGLNYDTLTLAGLVHNIGALPVLTEAEAHPEMFTTIEHLRSLVRKMQGPIGRAVLKSWDFAPEVMEVVERWADLPYLGDHVSYLDFIRAAAFYTGELRAGNELEQRLDVFVKRGLPVSPEDLGSDAFLDSYHSIKASYE” the “soluble on expression in E. coli” value was “soluble”.
For “GMSNINYVILTVASVDFSYRETMARLMSSYSKDLIDNAGAKGTRFGSIGTGDHAGSLIFIQFYDDLTGYQKALEIQSKSSVFKEIMDSGKANIYLRNISTSLPTKFEQSYEHPKYIVLTRAEAAMSDKDKFLNCINDTASCFKDNGALTLRFGNLLTGSNVGNYLLGVGYPSMEAIEKTYDELLAHSSYKELMTFAKVNMRNIIKIL”, the “soluble on expression in E. coli” value was “soluble”.
With “GMSRDRLYTWAGLWRSPSSSWEALRLEDDQAESQLRAPDERSGLPYQLDYRLRWDADWHLREAVFHVESETGVRKLHLLADGRGHWQDGDGEALPAFDGCLDIDIWPSPFTNTFPIRRLGLADGQRAEIRALYIEAPALEPRSMRQAYTRLDASHYLYENLEGSAFKAVLLVDEQGLVIDYPGLFQRL” the “soluble on expression in E. coli” value was “soluble”.
With “GMSRTNINFNNKRTELANKIWDIFIANGYENTTLAFIINKLGISKGALYHYFSSKEECADAAIENRVAFFSNEVLKESEEGLNSIERLKKILLAGIKITSVNEQVKEINSPSNKIFHQKLMVAIIKYFAPIYADIISQGNEEGVFKVKYPLETAEIILTLSHFYLDEDLFKWKKEDMSLKLTAFKETLIKILDADEDTFDFIK” the “soluble on expression in E. coli” value was “soluble”.
In the case of “GMTGAVETESMKTVRIREKIKKFLGDRPRNTAEILEHINSTMRHGTTSQQLGNVLSKDKDIVKVGYIKRSGILSGGYDICEWATRNWVAEHCPEWTEGQPIILNEEGDFTLGPLPE”, the “soluble on expression in E. coli” value was “soluble”.
For “GMTQLDTWLANTKPLIPVIVIDDLVHAIPMAKALVAGGVHLLEVTLRTEAGLAAISAIKKAVPEAIVGAGTVCTADDFQKAIDAGAQFIVSPGLTPELIEKAKQVKLDGQWQGVFLPGVATASEVMIAAQAGITQLKCFPASAIGGAKLLKAWSGPFPDIQFCPTGGISKDNYKEYLGLPNVICAGGSWLTESKLLIEGDWNEVTRRASEIVKLSDI”, the “soluble on expression in E. coli” value was “soluble”.
For “GMTTQTATDFMEIVKGRRSIRNYDTNVKISKEEMTQILEEATLAPSSVNMQPWRFLVIDSEEGKATLAPLAKFNQVQVETSSAVIAVFGDMKAIDQLENIYDTAVEKGLMPQEVRDRQVPAIQGMYENVPASALKDSILIDSGLVSMQLMLVARAHGYDTNPIGGYEKDQIAEAFGMEKDRYVPVMLLSIGKAVDAGYPSVRLPINDIADWK”, the “soluble on expression in E. coli” value was “soluble”.
In the case of “GMTYELSTDREFDLIAIGRACIDLNAVEYNRPMEETMTFSKYVGGSPANIVIGSSKLGLKAGFIGKIADDQHGRFIESYMRGVGVDTSNLVVDQEGHKTGLAFTEIKSPEECSILMYRQDVADLYLSPEEVNEAYIRRSKLLLVSGTALSKSPSREAVLKAIRLAKRNDVKVVFELDYRPYSWETPEETAVYYSLVAEQSDIVIGTREEFDVLENRTEKGDNDETIRYLFKHSPELIVIKHGVEGSFAYTKAGEAYRGYAYKTKVLKTFGAGDSYASAFLYALISGKGIETALKYGSASASIVVSKHSSSDAMPSVEEIEALIEKDETITIA”, the “soluble on expression in E. coli” value was “soluble”.
In the case of “GNSIASCADEQPHIGNYRLLKTIGKGNFAKVKLARHILTGREVAIKIIDKTQLNPTSLQKLFREVRIMKILNHPNIVKLFEVIETEKTLYLIMEYASGGEVFDYLVAHGRMKEKEARSKFRQIVSAVQYCHQKRIVHRDLKAENLLLDADMNIKIADFGFSNEFTVGGKLDAFCGAPPYAAPELFQGKKYDGPEVDVWSLGVILYTLVSGSLPFDGQNLKELRERVLRGKYRIPFYMSTDCENLLKRFLVLNPIKRGTLEQIMKDRWINAGHEEDELKPFVEPELDISDQKRIDIMVGMGYSQEEIQESLSKMKYDEITATYLLLGRK”, the “soluble on expression in E. coli” value was “soluble”.
In the case of “GPAIAENLYFQSPNPRPGKPSAPSLALGPSPGASPSWRAAPKASDLLGARGPGGTFQGRDLRGGAHASSSSLNPMPPSQLQLPTLPLVMVAPSGARLGPLPHLQALLQDRPHFMHQLSTVDAHARTPVLQVHPLESPAMISLTPPTTATGVFSLKARPGLPPGINVASLEWVSREPALLCTFPNPSAPRKDSTLSAVPQSSYPLLANGVCKWPGCEKVFEEPEDFLKHCQADHLLDEKGRAQCLLQREMVQSLEQQLVLEKEKLSAMQAHLAGKMALTKASSVASSDKGSCCIVAAGSQGPVVPAWSGPREAPDSLFAVRRHLWGSHGNSTFPEFLHNMDYFKFHNMRPPFTYATLIRWAILEAPEKQRTLNEIYHWFTRMFAFFRNHPATWKNAIRHNLSLHKCFVRVESEKGAVWTVDELEFRKKRSQRPSRCSNPTPGP”, the “soluble on expression in E. coli” value was “soluble”.
With “GPFPPPGMSLPEYWGEEHVWWDGRAAFHGEVVRPACTLAMEDAWQIIDMGETPVRDLQNGFSGPERKFSLRLRNCEFNSQGGNLFSDSRIRVTFDGVRGETPDKFNLSGQAKGINLQIADVRGNIARAGKVMPAIPLTGNEEALDYTLRIVRNGKKLEAGNYFAVLGFRVDYE” the “soluble on expression in E. coli” value was “soluble”.
In the case of “GPGGGSEAYFRVESGALGPEENFLSLDDILMSHEKLPVRTETAMPRLGAFFLERSAGAETDNAVPQGSKLELPLWLAKGLFDNKRRILSVELPKIYQEGWRTVFSADPNVVDLHKMGPHFYGFGSQLLHFDSPENADISQSLLQTFIGRFRRIMDSSQNAYNEDTSALVARLDEMERGLFQTGQKGLNDFQCWEKGQASQITASNLVQNYKKRKFTDMED”, the “soluble on expression in E. coli” value was “soluble”.
With “GPGSMAMMLHTRRTVYSCICVHTHTHTHTCGCPPPTLSQKKKRSRLFMSSSSGDEYDPAEVTVHTTVASPSLSDTVVPSAAPFLRSAAGNASAATVAAAPALASLPKTAASVLPSSSSPTPPNTGNDVDGGYRLHSNIKGRIRCLTLNTAGTTLCAGSEDGQLCMWDFTVPLKSYRVQPTRVLTPFVNRISGLQPIIALTCASDDSYFVACQDGDSPVLVRASGEQLGYCAIGERGLMDVIQCKGHRAPVTCVAAHTHDAAAFFTGSQDGTVRLWNTATFKQRSVYAVKHGSGQLTDTHAVESVASLDSFHNGLGRVFASGGQDGRVQIWDSRVKYRPGGAIATVDMYAAAAPAGPDKVTEDPFMEKHVGGMMELHQKDAGASNASGSYGLAVRLGSAVKIIDLPQLSHSDGTTAPKAVLQERLPGCPTCSTRALCRLGAVVGLQQ” the “soluble on expression in E. coli” value was “soluble”.
In the case of “GPGSMDCWNTRRDSKEFQHEAVEMDSLQANCGAPNEQAFHDTLVSAAYQLRARQRDTNVSISKAEMEGLVVLTRELENFKQMMKRSEFTVEGTWRIVEDGGMVERFGQQLYAELLTRNPRLRVHFHGVDIEEQSKSLLRMVGTAVHFYQKPQLTVDMFTKAGARHRGYGVNAEVFVEMRNAFMRVFSEFVGTDVFEAVEEEWRKFWKYVLDLLVHGSESAEGERYGKMYEEKMLKTIQADFKLIMERQNKCDLRGQFVSVMYSKAIEMHEELSKFEALKDLRASARVLQAYIDIINNIHDKKLLDEYMRELGGRHTAYNVTVENLQAFTEPFLFTCRHFFEEEWNIAAESRFLWLFEYMIDGISAGMVSDINSIVNLRAPSNSVTFGLIFTDIEASTRLWSKDSKSMSLAVKSHHAMIRRLIADYGAYEVKTVGDSFIIATKDVLVAVKLSLAIQLELMRMAPIAPGFAMVDSTEGHGDPQAWDDRTLRVRIGVEHCTDATATYDTIHRRYDYYGASVNRCARIEAAACGGQILLCRESFEYLKSMPEFHNDPCPHFLRHVEIATPPPKVDSRGLDHFVVVSDVGLASFKGIAEPVHLLSLVPRCLAGRQFTEKFTKVSE”, the “soluble on expression in E. coli” value was “not soluble”.
With “GPGSMDNTEETSRVTDQEERTLTETELPAPAEHVLEGDNSASEENRLHAFLIPLEDGEQFARANLQHRWYRGLTKMLWDEELERNGILIVERGESGRNNQSADEEEEEDDDGTDDCVAKMKREFRIKREQDKIVYEEDSTRTETLREEQNAISLIVTLMEEAMDRSILMNEAETMFALILDVLKPRVHYRYIYAWGVVTCCSFKPLKSEMDRLRPSDRHKPPYMRKSLPTCRVPLEPIYYLPDGGKKMRAMNELNDVRAIGWV” the “soluble on expression in E. coli” value was “not soluble”.
For “GPGSMEAAPAAAAPRLPQAPKRPREESDAPLQESSNGSVPANFSNEASVTTPVAGTELVVDVDQPETNAQASAVDAPRSRSRGLAAVGPGSTSPVAASRSGTDGANNCQPAAAVTTLSSSSASADARRFKQPTLAAYGLVSDTMTLKKEISDRDSHIEELNREVEGLRAEAGRRNDQINFMDGQCRQYQRKLEHFQSVMRQEMLSAAQKDRSEARRVLYQKHFELGQTATWHSNGQTVWMEGDRVRTLFLKLADLTQKREEVEALKKAAQSNVKHLARQEREREDSGAGPDLQDALMAAQMEYQLRASEHAALTNTIADVKLKQTEIEHEKKAFVKEMRRVNDEDTSEFLAIPTIGEGDRYVLMHLLGKGGFSEVWKAFDLVEGRYVACKIHHIQREWPAQTRTHYLRHAQRELDIMRALDHPHLTHLYDVFPRGDNMFISVMEYSNGMDLDTYLKRYRIFKEADARLIFLQVVDVLRYLASLDSPIIHYDLKPANILLHRDDPTILDIKITDFGLSKIIGATREGPSDNPSIELTSQGTGTYWYLPPECFETSSTPRISNKVDIWSAGVIFYQMLFGKRPFAEGESQRRIWQEKLIIQSARTLHFPDTPKVSEEAKDIIRGCLAFNERERCDVFQLSQDPYLFRTSRRSAHKAKSAAPAGVGSSNSPLMPPVTDATPAS”, the “soluble on expression in E. coli” value was “soluble”.
In the case of “GPGSMEFSGSTLSVVEVEHTVRQLRPFPLQDIGTAEWKNQREAVERLNMCTHSNAVLKKDDTVKAFLIEHEKLPVLLHELLVMEVWRQRVLPLIKDQIVQHPAGIYMYVQYEMVLLNLFECIAFHEEVVVALDEDVLELIDYCWRQASRLFAEQNVNEVQSKPTARDVSNAANTVEEVLKSADRQMLHAIYQRAMASLSILWFIIDRLNQLPLAASNSVLVKNDLILGLTEVMLLQPWLRRSSEATQKFFNGEFKDIPRADVLLVCTPEAHTWFSLHKLLCDPECRRRYSYTQSKKELILRIRHFLNDTLVDQIPALASLQRALEELSFLQPPSGTEEKFKSTLTIEQVPRIMTLVEVERKGSWDDLASTLRAMLQDPSVRNEDAMRLSRIFDEMFSDQLK”, the “soluble on expression in E. coli” value was “not soluble”.
